Measured values taken from patent publication US20140242694A1.

Molecular target: CD150 (signaling lymphocyte activation molecule, SLAM) on EBV-infected human B cells, Raji cells or IM-9 cells (human) (UniProt Q13291)
Experiment: cell-based or functional assay

Sequence of UniProt Q13291 (Q13291 21-335): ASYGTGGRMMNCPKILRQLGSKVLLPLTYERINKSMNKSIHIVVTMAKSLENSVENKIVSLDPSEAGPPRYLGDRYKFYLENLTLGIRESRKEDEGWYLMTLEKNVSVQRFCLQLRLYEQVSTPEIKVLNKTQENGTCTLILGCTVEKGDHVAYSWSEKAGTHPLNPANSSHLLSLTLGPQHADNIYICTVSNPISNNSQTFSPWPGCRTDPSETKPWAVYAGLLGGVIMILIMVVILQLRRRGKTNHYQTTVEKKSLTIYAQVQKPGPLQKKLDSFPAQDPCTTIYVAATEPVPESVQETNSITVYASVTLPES

IL-1A production, mRNA level (real-time RT-PCR): 55 fold | IL-1A production, protein level (ELISA): 23 fold
Substance: anti-CD150 mAb (clone IPO-3, Affinity Bioreagents) (antibody)
